From the nanobody polyreactivity screen of Harvey et al. (2022)

Assay: yeast display, Sf9 membrane polyspecificity reagent, FACS + sequencing; frameworks hold sequencing errors
Outline: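 Polyreactivity labels are assigned by the sorting gate from which each nanobody was recovered. The gates were low and high (top ~1%), set on anti-HA fluorescence for expression and streptavidin fluorescence for reagent binding. Before sorting, galactose-induced (36–48 hours) yeast display cells were stained for 1 hour at 4 °C with 10% biotinylated, detergent-solubilized Sf9 membrane reagent.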

| Sequence | polyreactivity (PSR sort gate) |
| --- | --- |
| QVQLVQSGGGLVQAGGSLRLSCAASGRIIGVNAMGWYRLAPGKERQLVADISSGRSTTYADSVKGRFTISRDNAKNTVYLQMNSLKPEDTALYYCNARFRFRYKFPSRHSWGQGSQVTVSS | high polyreactivity |
| QVQLVESGGGLVQAGGSLRLSCAASGRTFRRNAMGWYRQAPGKERELVAPISRGGSTNYADSVKGRFSISRDNAKNTVYLQMNSMKPEDTAVFYCAARYYYRYNYWGQGTQVTVSS | high polyreactivity |
| QGQLVESGGGLVQAGGSLRLSCAASGSTFRNYAMGWYRQAPGKERELVAAISGSGGRTNYADSVKGRFTISRDNAKNTVYLQMNSLKPEDTAVYYCNARFPDWALSEISLSTTYGYWGQGTQVTVSS | low polyreactivity |
| QVQLVESGGGLVQAGGSLRLSCAASGGIFGWYAMGWYRQAPGKERELVAAITGGGSTYYADSVKGRFTISRDNAKNTVYLQMNSLKPEDTAVYYCNADYHTEEDYWGHGTQVTVSS | low polyreactivity |
| QVQLVESGGGLVQAGGSLRLSCAASGRIFHSNAMGWYRQAPGKESELVADINRDGSTNYADSVKGRFTISRDNAKNTVYLQMNSLKPEDTAVYYCAKPYYSWPRYNHFEYWGQGTQVTVSS | low polyreactivity |
| QVQLVESGGGLVQAGGSLRLSCAASGRIFKYYGMGWYRQAPGKERELVAAISRGSSTNYADSVKGRFTISRDNAKNTVYLQMNSLKPEDTAVYYCAVSLRRGGSGYAYDYWGQGTQVTVSS | high polyreactivity |
| QVQLVESGGGLVQAGGSLRLSCAASGYTFTINAMGWYRQAPGKERELVAAISWNGGRTYYADAVKGRFTISRDNAKNTVYLQMNSLKPEDTAVCYCNADTYAAGDYWGQGTQVTVSS | high polyreactivity |
| QVQLVESGGGLVQAGGSLRLSCAASGSTFSLNAMGWYRQAPGKERELVAAISGSGGSTYYADSVKGRFTISRDNAKHTVYLQMNSLKPEDTAVYYCNKYYYPLRKSFGYWGQGTQVTVSS | high polyreactivity |
| QDQLVESGGGLVQAGGSLRLSCAASGRTFGEYAMGWYRQAPGKERELVAAISSTGSTYYADSVKGRFTISRDNAKNTVYLQMNSLKPEDTAVYDCAAEIVRYGDEYDYWGQGTQVTVSS | low polyreactivity |
| QVQLQESGGLEQAGVSLRLSCAACGNIFYDTYICWYRQGKERELVASIDHAGSTNYADSVIGRFTISRDNAKNTSYLQRNSLKPDDTAVYYCNAEYTKTGALLIPYTYYYAEDYWGQGTQVTVSS | low polyreactivity |
| QVQLVESGGGLVQAGGSLRLSCAASGRIFGWYAMGWYRQAPGKERELVADIRYRGGSTYYADSVKGRFTISRDNAKNTVYLQMHSLKPEDTAVYYCAALGFVPVPYDYWGQGTQVNVSS | low polyreactivity |
| QVQLVESGGGLVQAGGSLRLSCAAYGITFVPNAMGWYRQAPGKERELVAAITSGDSTNYADSVKGRFTISRDNAKNTVYLQMNSLKPDDTAVYYCAADSWAQRPNQGRVSLHYYWGQCTQVTVSS | low polyreactivity |
| QVKLVESGGVLVQAGGSLRITCAGSGRIFSRYVMGWYRQAPGKETEFVAYITWSGSSTFYADSVKGRFTISRDNAKNTGYLQMNSHKPEDSAVYFCAALGLLSPSPWGTHISEYDSWGQGTQVTVSS | low polyreactivity |
| QVQLVESGGGLVQAGGSLRLSCAASGRIFVINAMGWYRQAPGKEREFVAGITSSGNTNYADSVKGRFTISRDNAKNTVYLQMNSLKPEDTAVYYCNAQVYLTWLTYWLYYPPNDYWGQGTQVTVSS | low polyreactivity |
| QVQLVEAGGGLVQAGGSLRLSCAASGSIFGYYAMGWYRQAPGKERELVAAISYRGGSTYYADSVKGRFTISRDNAKNTVYLQMNSLKPEDTAVYYCNAGGRRRIFAHSSTGDYWGQGTQVTVSS | high polyreactivity |
| QVRLVESGGGLVQAGGSLRLSCAASGFIFWRNAMGWYRQAPGKERELVAAITSGGSTNYADSVKGRFTISRDNAKNTVYLQMNSLKPVDTAVYYCAARQWFSHRRWGGSRYDYWGQGTQVTVSS | low polyreactivity |

| Sequence | polyreactivity (PSR sort gate) |
| --- | --- |
| QLQLVESCGGLVQAGGSLRLSCAASGSILLNNAMGWYRQAPGKERELVAAISLSGGGSTYYADSVKGRFTLSRDNAKNTVYLQMNSLIPEDTAVYYCNADDPYLYYDSYDYWGQGTQVTVSS | low polyreactivity |
| QVQLVESGGGLVQAGGSLRFSCAACGSIFEFYALGWSSQAPGKERELVAAITWDDGSTYYADSVKGRFTISRDNATNTVYLQMNSLTPEDTAVYYCAADTYITSDLYVYAYYYWGQGTQVTVSS | low polyreactivity |
| QVQLVESGGGLVQAGGSLRLSSAASGSIFYRYAMGWYRQAPGKERELVAVISRGGSTNYADSVKGRFTISRDNAKNTVYLQMNSLKPEDTAVYYCAAGGYSKGDYWGQGTQVTVSS | high polyreactivity |
| QVQLVESGGGLVQAGGSLRLSCAASGFIFAGNAMGWYRQAPGKERELVAAISGSGGSTYYADSVKGRFTISRDNAKNTVYLQMNSLKPEDTAVYYCNAVYYRYYDVEGFDYWGQGTQVTVSS | high polyreactivity |
| QVQLVESGGGLVQAGGSLRLSCAASGRTFPLYAMGWYRQAPGKERELVASITTDSSTYYADSVKGLFTISRDNAKYTVYLQMNSLKPEDTAVYYCAATTIPYPYTEFDYWGQGTQVTVSS | low polyreactivity |
| QVQLVESGVGLVQAGGSLRLSCAASGRIFRWYAMGWYRQAPGKERELVASITWNGGSTYYADSVKGRFTISRDNAKNTVYLQMNSLKPEDNAVYYCAVPFYRGPEMGYWGQGTQVTVSS | high polyreactivity |
| QVQLVESGGGLVQAGGSLRLSCAASGSIFYVYAMGWYRQAPGKERELVAAIRRSGTSTYYADSVKGRFTISRDNAKNTVYLQMNSLKPEDSAVYYCAARYEVRHTLYNYWGQGTQVTVSS | high polyreactivity |
| QVQLVETAGGLVQAGGTLRLSCPASGFTIFDNAMGWSRHPPGQERELVAVITKRGGSTYYADSVKGRFTISRYNAKNTVYLQMNILKPEDTAVYYCAADSRFSNFGVTQVTSDYWGQGTQVTVSS | low polyreactivity |
| QVQLVESGGGLVQAGGSLRLSCAASGSTIVIYTMGWYRQAPGKERELVAAISQSGGRTYYADSVKGRFTISRDNSKNTVYLQMNSLKPEDTAVYYCAATWGKHYGYWGQGTQVTVSS | high polyreactivity |
| QVQHVESGGGLVQAGGSLRLSCAASGFTSTVYAMGCYRQAPGKERELVASITWSGGRTYYADSVKGRFTISRDNAKNTVYFQMNSLKPEDTAVYYCAARTYSYGSILKYYYWGQGSQVTVSS | high polyreactivity |
| QLQLVESGGGLVQAGGSLRLSCAASGSIFFNYTMGWYRQAPGNERELVAAINSSGGRTNYADSVKGRFTISRDNAKNTVYLQMNSLKPEDTAVYYCAAGQSRYRELEYWGQGTQVTVSS | low polyreactivity |
| QVQLVESGGGLVQAGGSLRLRCAASGLTVRNYAMGWYRQAPRKERDLVAAISSGGGSTYYADSVKGRFTISRDNAKNTVYLQMNSLKPEDTAVYYCAAKRHTSLYVYYYWGQGTQVTVSS | high polyreactivity |
| QVQLVESGGGLVQAGGSLRLSCAASGSIFEEYAMGWYRQAPGKERELVARIDESGGSTYYADSVKGRFTISRDNAKNTVYLQMHSLKPEDSAVYYCAAVVTAQAYAYFTYGYDYWGQGTQVTVSS | low polyreactivity |
| QVHLVESGGGLVQAGGSLRLSCAASGITFLKYAMGWYRQAPGKERELVARITSGGRTYYADSVKGRFTISRDNAKNTVYLLMNSLKPEDTAVYYCNAVKSYASLYAGFYYWGQGTHVTVSS | high polyreactivity |
| QVHLVESGGGLVQAGGSLRLSCAASGTIYYVYSMVWYRQAPGKERELVASINKSGGSTYYADSVKWRFTISRDNAKNTVYLQMNSLKREDTAVYYCAARTGWPRVGFQYPAHVGFDYWGQGTQVTVSS | low polyreactivity |
